{"source": "patent US20160008485A1", "about": "(Pfizer, published 2016)", "binders": {"B1": {"name": "parental anti-5T4 antibody (wild type human IgG1) (antibody)", "heavy": "not shown", "light": "DIQMTQSPSSLSASVGDRVTITCKASQSVSNDVAWYQQKPGKAPKLLIYFATNRYTGVPSRFSGSGYGTDFTLTISSLQPEDFATYYCQQDYSSPWTFGQGTKVEIKRTVAAPSVFIFPPSDEQLKSGTASVVCLLNNFYPREAKVQWKVDNALQSGNSQESVTEQDSKDSTYSLSSTLTLSKADYEKHKVYACEVTHQGLSSPVTKSFNRGEC", "notes": "Humanized, human IgG1/kappa; also called Parental anti-5T4 Ab; wt IgG1"}, "B2": {"name": "5T4-E380C-mcMMAD (antibody, human IgG1, kappa)", "heavy": "not shown", "light": "B1 light", "modifications": "mcMMAD on engineered Cys 380 (EU)", "notes": "Antibody-drug conjugate"}, "B3": {"name": "5T4-L443C-mcMMAD (antibody)", "heavy": "not shown", "light": "B1 light", "modifications": "mcMMAD on engineered Cys 443 (EU)", "notes": "Antibody-drug conjugate; also called 5T4-L443C-mcMMAD (1)"}, "B4": {"name": "5T4-V422C-mcMMAD (antibody, human IgG1, kappa)", "heavy": "not shown", "light": "B1 light", "modifications": "mcMMAD on engineered Cys 422 (EU)", "notes": "Antibody-drug conjugate"}, "B5": {"name": "5T4-L398C-mcMMAD (antibody, human IgG1, kappa)", "heavy": "not shown", "light": "B1 light", "modifications": "mcMMAD on engineered Cys 398 (EU)", "notes": "Antibody-drug conjugate"}, "B6": {"name": "5T4-T359C (antibody, human IgG1, kappa)", "heavy": "not shown", "light": "B1 light"}, "B7": {"name": "5T4-L398C (antibody, human IgG1, kappa)", "heavy": "not shown", "light": "B1 light"}, "B8": {"name": "5T4-V422C (antibody, human IgG1, kappa)", "heavy": "not shown", "light": "B1 light"}, "B9": {"name": "5T4-F404C (antibody, human IgG1, kappa)", "heavy": "not shown", "light": "B1 light"}, "B10": {"name": "5T4-S440C (antibody, IgG1)", "heavy": "not shown", "light": "B1 light"}, "B11": {"name": "5T4-K392C (antibody, human IgG1, kappa)", "heavy": "not shown", "light": "B1 light"}, "B12": {"name": "5T4-E380C (antibody, human IgG1, kappa)", "heavy": "not shown", "light": "B1 light"}, "B13": {"name": "5T4-L443C-vcMMAD (antibody)", "heavy": "not shown", "light": "B1 light", "modifications": "vcMMAD (mcValCitPABC-MMAD) on engineered Cys 443 (EU)"}, "B14": {"name": "5T4-K392C-mcMMAD (antibody, human IgG1, kappa)", "heavy": "not shown", "light": "B1 light", "modifications": "mcMMAD on engineered Cys 392 (EU)"}, "B15": {"name": "5T4-K392C+L443C-mcMMAD (antibody)", "heavy": "not shown", "light": "B1 light", "modifications": "mcMMAD on engineered Cys 392 and Cys 443 (EU)"}, "B16": {"name": "5T4-E380C+L443C-mcMMAD (antibody)", "heavy": "not shown", "light": "B1 light", "modifications": "mcMMAD on engineered Cys 380 and Cys 443 (EU)"}, "B17": {"name": "5T4-V422C-vcMMAD (antibody, human IgG1, kappa)", "heavy": "not shown", "light": "B1 light", "modifications": "vcMMAD (mcValCitPABC-MMAD) on engineered Cys 422 (EU)"}, "B18": {"name": "5T4-E380C+L398C-mcMMAD (antibody, human IgG1, kappa)", "heavy": "not shown", "light": "B1 light", "modifications": "mcMMAD on engineered Cys 380 and Cys 398 (EU)"}, "B19": {"name": "5T4-E380C+V422C-mcMMAD (antibody, human IgG1, kappa)", "heavy": "not shown", "light": "B1 light", "modifications": "mcMMAD on engineered Cys 380 and Cys 422 (EU)"}, "B20": {"name": "5T4-L398C+V422C-mcMMAD (antibody, human IgG1, kappa)", "heavy": "not shown", "light": "B1 light", "modifications": "mcMMAD on engineered Cys 398 and Cys 422 (EU)"}, "B21": {"name": "5T4-L398C-vcMMAD (antibody, human IgG1, kappa)", "heavy": "not shown", "light": "B1 light", "modifications": "vcMMAD (mcValCitPABC-MMAD) on engineered Cys 398 (EU)"}, "B22": {"name": "5T4-E380C-vcMMAD (antibody, human IgG1, kappa)", "heavy": "not shown", "light": "B1 light", "modifications": "vcMMAD (mcValCitPABC-MMAD) on engineered Cys 380 (EU)"}, "B23": {"name": "5T4-L398C+L443C-mcMMAD (antibody)", "heavy": "not shown", "light": "B1 light", "modifications": "mcMMAD on engineered Cys 398 and Cys 443 (EU)"}}, "note": "Several values for one entry are separate records, joined by “and”; a condition that tells them apart may be missing. Equal entries are not always repeated."}
{"target": "T1, human FcRn (human, UniProt P55899 24-297; P61769 21-119, limits assumed, biotinylated through an engineered Avi-tag)", "T1 construct": "Immobilised on a streptavidin chip; not shown: engineered Avi-tag", "T1 sequence (P55899 24-297 limits assumed, chain 1 of 2)": "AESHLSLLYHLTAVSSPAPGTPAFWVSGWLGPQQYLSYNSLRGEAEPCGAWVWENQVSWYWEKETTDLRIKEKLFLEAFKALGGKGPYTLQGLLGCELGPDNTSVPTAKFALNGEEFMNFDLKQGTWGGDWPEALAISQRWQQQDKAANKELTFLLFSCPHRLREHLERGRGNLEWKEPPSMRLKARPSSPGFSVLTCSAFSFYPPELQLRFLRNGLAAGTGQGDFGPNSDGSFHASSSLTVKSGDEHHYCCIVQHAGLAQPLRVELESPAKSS", "T1 sequence (P61769 21-119 limits assumed, chain 2 of 2)": "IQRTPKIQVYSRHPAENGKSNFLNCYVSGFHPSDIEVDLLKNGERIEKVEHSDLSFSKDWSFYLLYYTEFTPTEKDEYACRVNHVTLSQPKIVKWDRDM", "experiment": "BIAcore SPR, steady state, pH 6.0, biotinylated human FcRn on SA chip"}
{"binder": "B1", "Kd": "493 nM"}
{"binder": "B2", "Kd": "409 nM"}
{"binder": "B3", "Kd": "697 nM and 518 nM"}
{"binder": "B4", "Kd": "402 nM"}
{"binder": "B5", "Kd": "704 nM"}
{"target": "T2, human truncated recombinant 5T4 protein (5T4-tm-_myc_his) (human, UniProt Q13641 32-355)", "T2 construct": "extracellular domain; Coated on the ELISA plate; construct cited to Boghaert et al. 2008; also called 5T4 antigen; not shown: Myc and histidine tags", "T2 sequence (looked up)": "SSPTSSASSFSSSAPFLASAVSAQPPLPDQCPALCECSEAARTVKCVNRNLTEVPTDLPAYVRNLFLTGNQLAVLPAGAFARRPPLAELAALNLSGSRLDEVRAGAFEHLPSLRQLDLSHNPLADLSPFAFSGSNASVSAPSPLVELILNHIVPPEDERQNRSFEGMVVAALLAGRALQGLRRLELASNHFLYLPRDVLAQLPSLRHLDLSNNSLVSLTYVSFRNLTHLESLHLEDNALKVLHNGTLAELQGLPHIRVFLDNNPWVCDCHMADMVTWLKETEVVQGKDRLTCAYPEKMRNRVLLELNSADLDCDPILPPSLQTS", "experiment": "competition ELISA on plate-coated 5T4-tm-_myc_his; competitor: biotinylated wild type anti-5T4 antibody at 1.3 nM, detected with streptavidin-HRP, OD450", "units": {"IC50 (read off the curve)": "nM"}}
{"binder": "B6", "IC50 (read off the curve)": "~6"}
{"binder": "B7", "IC50 (read off the curve)": "~7"}
{"binder": "B8", "IC50 (read off the curve)": "~7"}
{"binder": "B9", "binding result": "binds"}
{"binder": "B10", "IC50 (read off the curve)": "~6"}
{"target": "T1, human FcRn", "experiment": "BIAcore SPR, steady state, pH 6.0, biotinylated human FcRn on SA chip", "remark": "another data set of the same source", "units": {"Kd": "nM"}, "from_the_text": "Binding is detected by surface plasmon resonance (SPR) of laser light refracting from the surface. Human FcRn was specifically biotinylated through an engineered Avi-tag using the BirA reagent (Catalog #: BIRA500, Avidity, LLC, Aurora, Colo.) and immobilized onto a streptavidin (SA) sensor chip to enable uniform orientation of the FcRn protein on the sensor."}
{"binder": "B1", "Kd": 412}
{"binder": "B11", "Kd": 384}
{"binder": "B7", "Kd": 513}
{"binder": "B8", "Kd": 443}
{"binder": "B12", "Kd": 390}
{"binder": "B10", "Kd": 608}
{"target": "T3, human 5T4 antigen on cells (MDAMB435/5T4 transfectants; MDA-MB-468) (human, UniProt Q13641 32-420)", "T3 sequence (looked up)": "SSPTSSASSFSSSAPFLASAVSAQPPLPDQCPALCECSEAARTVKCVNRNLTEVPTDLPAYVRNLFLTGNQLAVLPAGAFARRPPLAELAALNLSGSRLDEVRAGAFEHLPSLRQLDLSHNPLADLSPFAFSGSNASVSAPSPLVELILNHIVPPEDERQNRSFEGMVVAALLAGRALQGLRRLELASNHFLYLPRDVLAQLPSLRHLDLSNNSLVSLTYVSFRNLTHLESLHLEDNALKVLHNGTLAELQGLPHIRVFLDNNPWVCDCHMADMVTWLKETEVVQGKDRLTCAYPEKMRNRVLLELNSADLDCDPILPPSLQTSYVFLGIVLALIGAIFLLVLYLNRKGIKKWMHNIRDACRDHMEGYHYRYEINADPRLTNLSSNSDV", "experiment": "cell-based or functional assay", "units": {"IC-50, growth inhibition (MTS), MDAMB435/5T4 cells (5T4 expression 3+)": "ng ADC/ml"}}
{"binder": "B13", "IC50, growth inhibition (MTS), MDA-MB-468 cells (5T4 expression 2+)": "1.4 µg/mL", "IC-50, growth inhibition (MTS), MDAMB435/5T4 cells (5T4 expression 3+)": 40}
{"binder": "B14", "IC50, growth inhibition (MTS), MDA-MB-468 cells (5T4 expression 2+)": "32 µg/mL", "IC-50, growth inhibition (MTS), MDAMB435/5T4 cells (5T4 expression 3+)": 160}
{"binder": "B15", "IC50, growth inhibition (MTS), MDA-MB-468 cells (5T4 expression 2+)": "30 µg/mL", "IC-50, growth inhibition (MTS), MDAMB435/5T4 cells (5T4 expression 3+)": 98}
{"binder": "B16", "IC50, growth inhibition (MTS), MDA-MB-468 cells (5T4 expression 2+)": "3.3 µg/mL", "IC-50, growth inhibition (MTS), MDAMB435/5T4 cells (5T4 expression 3+)": 79}
{"binder": "B17", "IC-50, growth inhibition (MTS), MDAMB435/5T4 cells (5T4 expression 3+)": 15}
{"binder": "B18", "IC50, growth inhibition (MTS), MDA-MB-468 cells (5T4 expression 2+)": "5.1 µg/mL", "IC-50, growth inhibition (MTS), MDAMB435/5T4 cells (5T4 expression 3+)": 79}
{"binder": "B19", "IC50, growth inhibition (MTS), MDA-MB-468 cells (5T4 expression 2+)": "5 µg/mL", "IC-50, growth inhibition (MTS), MDAMB435/5T4 cells (5T4 expression 3+)": 100}
{"binder": "B20", "IC50, growth inhibition (MTS), MDA-MB-468 cells (5T4 expression 2+)": "17 µg/mL", "IC-50, growth inhibition (MTS), MDAMB435/5T4 cells (5T4 expression 3+)": 100}
{"binder": "B21", "IC-50, growth inhibition (MTS), MDAMB435/5T4 cells (5T4 expression 3+)": 14}
{"binder": "B22", "IC-50, growth inhibition (MTS), MDAMB435/5T4 cells (5T4 expression 3+)": 15}
{"binder": "B23", "IC50, growth inhibition (MTS), MDA-MB-468 cells (5T4 expression 2+)": "5.5 µg/mL and 7.1 µg/mL"}
{"binder": "B2", "IC50, growth inhibition (MTS), MDA-MB-468 cells (5T4 expression 2+)": "8.1 µg/mL", "IC-50, growth inhibition (MTS), MDAMB435/5T4 cells (5T4 expression 3+)": 170}
{"binder": "B3", "IC50, growth inhibition (MTS), MDA-MB-468 cells (5T4 expression 2+)": "20 µg/mL", "IC-50, growth inhibition (MTS), MDAMB435/5T4 cells (5T4 expression 3+)": 120}
{"binder": "B4", "IC50, growth inhibition (MTS), MDA-MB-468 cells (5T4 expression 2+)": "36 µg/mL", "IC-50, growth inhibition (MTS), MDAMB435/5T4 cells (5T4 expression 3+)": 270}
{"binder": "B5", "IC50, growth inhibition (MTS), MDA-MB-468 cells (5T4 expression 2+)": "13 µg/mL", "IC-50, growth inhibition (MTS), MDAMB435/5T4 cells (5T4 expression 3+)": 160}
